Measured values taken from US12241094B2, “Phenazine degrading agents and related compositions, methods and systems for interfering with viability of bacteria” (priority 2016, dated 2025).
“Also recorded” adds a separate entry of the source. Read-outs that look alike come from different tables or passages of the source.

Columns and labels:
[1] = tested on: Pa PA14 biofilm; assay: Biofilm biomass by DAPI intensity (Example 7); format: cell-based, P. aeruginosa
Experimental: In this example, to check for an effect of PodA or 1-OH-PHZ on biofilm development, Pa PA14 was grown in 8-well chambered microscope slides designed for biofilm imaging, as previously reported (Das et al. (2015) Sci Rep. 5:8398). Overnight cultures of Pa PA14 were diluted to a starting optical density of 0.25 and grown directly on the slides (volume of 250 μl per chamber). After 5 h incubation at 37° C., planktonic cells were rinsed from the slide and remaining cells were stained with DAPI. Biofilm biomass was quantified by DAPI intensity on a Leica confocal microscope, with LAS X software. Pa PA14 incubated in the presence of 1 μM PodA or 100 μM 1-OHPHZox had ˜50% the biofilm biomass of Pa PA14 alone (FIG. 20A).

[2] = PYO demethylation by purified PodA30-162 and mutants (spectrophotometric/HPLC); format: biochemical
Experimental: Enzyme activity and analysis. PYO demethylation by PodA30-162 was first determined by HPLC analysis as described previously (6, 9). To detect formaldehyde evolution, 150 nM protein was mixed with 50 μM PYO in 1 mL of 20 mM Tris pH 7.6 amended with 200 μL Nash reagent (2 M ammonium acetate, 50 mM acetic acid, 20 mM acetylacetone) and incubated at 55° C. until the reaction proceeded to completion (37, 38). The products were determined by HPLC using the same method as used for phenazine quantification. To monitor the formation of reduced phenazine, protein and 50 μM PYO were placed into an anaerobic chamber (Coy Laboratory Products) under an atmosphere of H2/N2 (5:95) and left overnight before allowing the reaction to proceed. To generate reduced PYO and 1-OH-PHZ, 50 μM were mixed with 1 mM sodium dithionite. The formation of reduced phenazine products was assayed visually under UV illumination (39). A BioTek Synergy 4 microplate reader (BioTek) plate reader in the anaerobic chamber was used to measure the emission spectrum of products with excitation at 250 nm. To determine the activity of PodA30-162 in the presence of glycerol, salts, or varying pH, 30 nM protein was suspended in 500 μL buffer, 40 μM PYO was mixed with 2× solution containing the buffer of interest (500 μL), and solutions were preheated to 30 C. For pH range measurements, the following buffers were used (40 mM, adjusted with KOH): acetic acid, pH 4.9; MES, pH 5.4 and 5.7; HEPES, pH 6.1; Tris, pH 6.9 and 7.5; Bicine, pH 7.8, 8.3 and 8.7; CHES, pH 9.4. To measure reaction rates, cuvettes containing the 2×PYO solution were placed in a Evolution 260Bio UV-Vis spectrophotometer (Thermo Scientific) and 500 μL of 30 nM protein was added at time 0 (15 nM protein and 20 μM PYO, final concentration). Reaction progress was monitored by measuring absorbance at 313 nm (40) every 0.5 seconds for 5 minutes. To measure kinetic parameters (kcat, Km) 15 nM protein was used in a reaction buffer of Bicine, pH 7.8; reactions were monitored as before with measurements every 0.2 seconds. The rate from the first 10 seconds of the reaction was used for the determination of kinetic parameters. Kinetic parameters were calculated in Microsoft Excel using the Solver plug-in and fitting data to ideal Michaelis-Menton plots with non-linear regression of experimental data (41). For measurements of the rate of methoxy-PMS demethylation, 300 nM protein was used and methoxy-PMS loss from the reaction mixture was monitored at 500 nm wavelength. Methoxy-PMS was purchased from TCI America. For assays with mutant proteins, 60 nM protein was used. The stimulatory effects of flavin or 2-oxoglutarate addition was determined by adding 25 μM flavin or 2-oxoglutarate to 20 μM PYO and 15 nM PodA30-162 and monitoring the reaction. Experiments testing alternative substrates were carried out using 1 mL reaction volumes containing 20 mM Tris (pH 7.6) and 50 μg mL^−1 PodA30-162. Alternative substrates tested were 10-methylphenothiazine (AlfaAesar), phenazine methosulfate (AlfaAesar), methoxyphenazine methosulfate (TCI America), and 4-keto-N-ethylphenazine. 4-keto-N-ethylphenazine was synthesized from phenazine ethosulfate (Sigma-Aldrich) by incubating under fluorescent light overnight followed by purification by HPLC as described (6, 42). As phenazine methosulfate is light sensitive and spontaneously converts to PYO in the presence of light, all reactions were carried out in the dark, and activity was assessed by end point analysis by HPLC after 4 hours (9).

B1: PodA30-162: truncated pyocyanin demethylase encoded by MFORT_14352 of Mycobacterium fortuitum lacking N-terminal helix, SEQ ID NO: 2 (protein, listed as Mycobacterium fortuitum)
chain: MDGRGGRSTTEPVTMTLDVKNDQVAKHDFGKPGMDVGDMDIFSDILSVDGKQVGYDGGACFFTNVTPDNPMTYCELTIHLDAGEIFARSLTPHTLAPFTMAITGGTGEYANSKGELTVSGVATPDEKYELKLTKAENLYFQ
- biofilm biomass relative to Pa PA14 alone ([1]; 1 μM PodA or 100 μM 1-OHPHZox, 5 h at 37° C): ~50%
- biofilm formation compared to untreated control ([1]; PodA 1 μM, 1-OH-PHZ 100 μM, total DAPI staining): inhibit biofilm formation
- activity in presence of glycerol or KCl or NaCl salts ([2]; 20 μM PYO, 15 nM PodA30-162): minimally inhibited
- pH regime over which enzyme operates ([2]; 20 μM PYO, 15 nM PodA30-162): 4.9-8.7 pH
- pH above which activity is lost ([2]; 20 μM PYO, 15 nM PodA30-162, 5 minutes): > 9 pH
- activity in presence of flavins (FMN, FAD) or 2-oxoglutarate ([2]; 25 μM, 15 nM PodA30-162): not stimulated
- activity under anoxic conditions ([2]; 50 μM PYO, anaerobic chamber): functions under anoxic conditions; also recorded: active
- salt concentrations over which enzyme operates ([2]; KCl or NaCl): 0 to 400 mM
- kcat ([2]; PYO substrate, 15 nM protein, Bicine pH 7.8): 1.20 ± 0.07 s⁻¹
- Km ([2]; PYO substrate, 15 nM protein, Bicine pH 7.8, read-out: Km): < 1 µM
- Km ([2]; best fit to Michaelis-Menton plot, 15 nM PodA30-162, PYO detection limit 0.5 μM, read-out: apparent Km): < 1 µM
